In article doi:10.1101/2021.10.11.463801, “JIP3 regulates bi-directional organelle transport in neurons through its interaction with dynein and kinesin-1” (bioRxiv, 2021):
Where a chain is given by its changes, count along the chain named. In names and notes the source's numbering stands.

B1: JIP4[1-103] (domain or fragment, human, UniProt O60271-1 1-103, looked up)
chain: MELEDGVVYQEEPGGSGAVMSERVSGLAGSIYREFERLIGRYDEEVVKELMPLVVAVLENLDSVFAQDQEHQVELELLRDDNEQLITQYEREKALRKHAEEKF
notes: human JIP4, residues 1-103 (RH1 domain); UniProt O60271-1; Dimer by AUC; also called JIP4-RH1; RH1 domain of JIP4; source: E. coli (BL21, BL21-CodonPlus-RIL or Rosetta), purified
B2: GST-tagged KLC1[185-501] (domain or fragment, human, UniProt Q07866-1 185-501, looked up)
chain: DDPGQGIQQQHSSAAAAAQQGGYEIPARLRTLHNLVIQYASQGRYEVAVPLCKQALEDLEKTSGHDHPDVATMLNILALVYRDQNKYKDAANLLNDALAIREKTLGKDHPAVAATLNNLAVLYGKRGKYKEAEPLCKRALEIREKVLGKDHPDVAKQLNNLALLCQNQGKYEEVEYYYQRALEIYQTKLGPDDPNVAKTKNNLASCYLKQGKFKQAETLYKEILTRAHEREFGSVDDENKPIWMHAEEREECKGKQKDGTSFGEYGGWYKACKVDSPTVTTTLKNLGALYRRQGKFEAAETLEEAAMRSRKQGLDNV
notes: human kinesin light chain 1 (KLC1), residues 185-501 (TPR domain); UniProt Q07866-1; also called KLC1 fragment; KLC1 TPR domain; source: E. coli (BL21, BL21-CodonPlus-RIL or Rosetta), purified; not shown: GST, N-terminal, kept
B3: JIP3[1-108] (domain or fragment, human, UniProt Q9UPT6-1 1-108, looked up)
chain: MMEIQMDEGGGVVVYQDDYCSGSVMSERVSGLAGSIYREFERLIHCYDEEVVKELMPLVVNVLENLDSVLSENQEHEVELELLREDNEQLLTQYEREKALRRQAEEKF
notes: UniProt Q9UPT6-1; Dimer by AUC; also called JIP3-RH1; RH1 domain of JIP3; source: E. coli (BL21, BL21-CodonPlus-RIL or Rosetta), purified
B4: JIP3[1-108] V60Q (domain or fragment, human, UniProt Q9UPT6-1 1-108, looked up)
chain: B3 chain with V60Q
notes: human JIP3, residues 1-108 (RH1 domain) with V60Q; UniProt Q9UPT6-1; Dimer by AUC; also called JIP3-RH1 V60Q; source: E. coli (BL21, BL21-CodonPlus-RIL or Rosetta), purified

Columns and labels:
[1] = target: the molecule itself; assay: AUC; sedimentation velocity, 42'000 rpm, 20 °C; 50 mM HEPES, 100 mM NaCl, 0.5 mM TCEP, pH 7.5; c(S) by SEDFIT
[2] = target: T1, mouse JIP3[186-505] (mouse, UniProt Q9ESN9-5 186-505); assay: pull-down; GST-tagged bait on glutathione agarose resin; purified recombinant proteins mixed in 50 mM HEPES, 100 mM NaCl, 5 mM DTT, pH 7.5; 1 h at 4 °C; eluted with 15 mM reduced L-glutathione; SDS-PAGE with Coomassie Blue or immunoblot; settings: both partners purified
T1 construct: mouse JIP3, residues 186-505 (holds the leucine zipper); numbers count on UniProt Q9ESN9-5; also called JIP3[186-505] wild type; source: E. coli (BL21, BL21-CodonPlus-RIL or Rosetta), purified
T1 sequence (looked up): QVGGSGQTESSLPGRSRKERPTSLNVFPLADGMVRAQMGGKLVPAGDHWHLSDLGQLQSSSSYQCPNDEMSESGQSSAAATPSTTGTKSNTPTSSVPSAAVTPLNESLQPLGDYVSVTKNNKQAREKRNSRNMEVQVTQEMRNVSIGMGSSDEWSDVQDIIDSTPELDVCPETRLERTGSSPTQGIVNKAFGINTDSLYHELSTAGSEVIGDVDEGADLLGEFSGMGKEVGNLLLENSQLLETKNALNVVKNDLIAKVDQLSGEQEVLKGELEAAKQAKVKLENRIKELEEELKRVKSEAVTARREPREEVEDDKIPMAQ

Binder | stoichiometry N [1] | binding result [2]
B1 | 2 | –
B2 | – | binds
B3 | 2 | –
B4 | 2 | –
